B1: STK38L (parent)
chain: FCIDSENRIGNSGVEEIKGHPFFE

Variants of: B1
Experiment: protein stability index of a GFP-peptide fusion (GPS, HEK-293T) (PSI 1-6); higher = more stable
Settings: c terminus: a fixed tail appended
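Also: lentivirally expressed fusions sorted by FACS into six bins by GFP to DsRed ratio, PSI derived from sequencing read proportions per bin multiplied by bin number.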

Going from FCIDSKNRIGNSGVEEIKGHPFFE [E6K] to FCIDSLNRIGNSGVEEIKGHPFFE [E6L], the protein stability index rises from 2.12 to 2.21.

Going from FCIDSMNRIGNSGVEEIKGHPFFE [E6M] to FCIDSNNRIGNSGVEEIKGHPFFE [E6N], the protein stability index falls from 2.89 to 1.59.

First: FCIDSPNRIGNSGVEEIKGHPFFE [E6P]
Second: FCIDSQNRIGNSGVEEIKGHPFFE [E6Q]
The protein stability index of the first is lower: 1.48 for the first, 1.73 for the second.

Compared with FCIDSRNRIGNSGVEEIKGHPFFE [E6R], FCIDSSNRIGNSGVEEIKGHPFFE [E6S] is higher in protein stability index: 2 for the first, 2.86 for the second.

Going from FCIDSTNRIGNSGVEEIKGHPFFE [E6T] to FCIDSVNRIGNSGVEEIKGHPFFE [E6V], the protein stability index rises from 1.74 to 1.8.

Compared with FCIDSWNRIGNSGVEEIKGHPFFE [E6W], FCIDSYNRIGNSGVEEIKGHPFFE [E6Y] is higher in protein stability index: 1.35 for the first, 1.71 for the second.

Compared with FCIDSEARIGNSGVEEIKGHPFFE [N7A], FCIDSECRIGNSGVEEIKGHPFFE [N7C] is lower in protein stability index: 2.93 for the first, 1.06 for the second.

Going from FCIDSEDRIGNSGVEEIKGHPFFE [N7D] to FCIDSEERIGNSGVEEIKGHPFFE [N7E], the protein stability index rises from 2.43 to 2.87.

First: FCIDSEGRIGNSGVEEIKGHPFFE [N7G]
Second: FCIDSEHRIGNSGVEEIKGHPFFE [N7H]
The protein stability index of the first is higher: 2.26 for the first, 1.91 for the second.

Going from FCIDSEIRIGNSGVEEIKGHPFFE [N7I] to FCIDSEKRIGNSGVEEIKGHPFFE [N7K], the protein stability index rises from 1.58 to 2.25.

Compared with FCIDSELRIGNSGVEEIKGHPFFE [N7L], FCIDSEMRIGNSGVEEIKGHPFFE [N7M] is higher in protein stability index: 2.24 for the first, 2.71 for the second.

Compared with FCIDSEPRIGNSGVEEIKGHPFFE [N7P], FCIDSEQRIGNSGVEEIKGHPFFE [N7Q] is lower in protein stability index: 2.21 for the first, 1.51 for the second.

First: FCIDSERRIGNSGVEEIKGHPFFE [N7R]
Second: FCIDSESRIGNSGVEEIKGHPFFE [N7S]
The protein stability index of the first is lower: 1.56 for the first, 2.09 for the second.

First: FCIDSETRIGNSGVEEIKGHPFFE [N7T]
Second: FCIDSEVRIGNSGVEEIKGHPFFE [N7V]
The protein stability index of the first is higher: 2.17 for the first, 1.22 for the second.

First: FCIDSEWRIGNSGVEEIKGHPFFE [N7W]
Second: FCIDSEYRIGNSGVEEIKGHPFFE [N7Y]
The protein stability index of the first is higher: 4.28 for the first, 1.8 for the second.

Compared with FCIDSENAIGNSGVEEIKGHPFFE [R8A], FCIDSENCIGNSGVEEIKGHPFFE [R8C] is lower in protein stability index: 2.67 for the first, 2.17 for the second.

Compared with FCIDSENDIGNSGVEEIKGHPFFE [R8D], FCIDSENEIGNSGVEEIKGHPFFE [R8E] is lower in protein stability index: 3.9 for the first, 3.56 for the second.

Compared with FCIDSENFIGNSGVEEIKGHPFFE [R8F], FCIDSENGIGNSGVEEIKGHPFFE [R8G] is higher in protein stability index: 2.45 for the first, 2.8 for the second.

Going from FCIDSENHIGNSGVEEIKGHPFFE [R8H] to FCIDSENIIGNSGVEEIKGHPFFE [R8I], the protein stability index rises from 2.72 to 2.79.

Compared with FCIDSENKIGNSGVEEIKGHPFFE [R8K], FCIDSENLIGNSGVEEIKGHPFFE [R8L] is lower in protein stability index: 2.37 for the first, 2.34 for the second.

Compared with FCIDSENMIGNSGVEEIKGHPFFE [R8M], FCIDSENNIGNSGVEEIKGHPFFE [R8N] is higher in protein stability index: 2.67 for the first, 2.94 for the second.

Compared with FCIDSENPIGNSGVEEIKGHPFFE [R8P], FCIDSENQIGNSGVEEIKGHPFFE [R8Q] is higher in protein stability index: 2.71 for the first, 2.83 for the second.

Compared with FCIDSENSIGNSGVEEIKGHPFFE [R8S], FCIDSENTIGNSGVEEIKGHPFFE [R8T] is higher in protein stability index: 2.55 for the first, 3.15 for the second.

Compared with FCIDSENVIGNSGVEEIKGHPFFE [R8V], FCIDSENWIGNSGVEEIKGHPFFE [R8W] is higher in protein stability index: 2.02 for the first, 2.87 for the second.

Going from FCIDSENYIGNSGVEEIKGHPFFE [R8Y] to FCIDSENRCGNSGVEEIKGHPFFE [I9C], the protein stability index rises from 2.15 to 2.38.

Going from FCIDSENREGNSGVEEIKGHPFFE [I9E] to FCIDSENRFGNSGVEEIKGHPFFE [I9F], the protein stability index falls from 3.42 to 1.9.

Going from FCIDSENRGGNSGVEEIKGHPFFE [I9G] to FCIDSENRHGNSGVEEIKGHPFFE [I9H], the protein stability index rises from 2.58 to 2.9.

First: FCIDSENRKGNSGVEEIKGHPFFE [I9K]
Second: FCIDSENRLGNSGVEEIKGHPFFE [I9L]
The protein stability index of the first is higher: 2.19 for the first, 1.99 for the second.

First: FCIDSENRMGNSGVEEIKGHPFFE [I9M]
Second: FCIDSENRNGNSGVEEIKGHPFFE [I9N]
The protein stability index of the first is lower: 2.03 for the first, 2.2 for the second.

First: FCIDSENRPGNSGVEEIKGHPFFE [I9P]
Second: FCIDSENRQGNSGVEEIKGHPFFE [I9Q]
The protein stability index of the first is higher: 3.17 for the first, 2.65 for the second.

First: FCIDSENRRGNSGVEEIKGHPFFE [I9R]
Second: FCIDSENRSGNSGVEEIKGHPFFE [I9S]
The protein stability index of the first is lower: 2.71 for the first, 2.82 for the second.

Going from FCIDSENRTGNSGVEEIKGHPFFE [I9T] to FCIDSENRVGNSGVEEIKGHPFFE [I9V], the protein stability index falls from 3.21 to 2.73.

Going from FCIDSENRWGNSGVEEIKGHPFFE [I9W] to FCIDSENRYGNSGVEEIKGHPFFE [I9Y], the protein stability index rises from 1.58 to 2.58.

Going from FCIDSENRIANSGVEEIKGHPFFE [G10A] to FCIDSENRICNSGVEEIKGHPFFE [G10C], the protein stability index rises from 2.27 to 2.32.

Compared with FCIDSENRIDNSGVEEIKGHPFFE [G10D], FCIDSENRIENSGVEEIKGHPFFE [G10E] is lower in protein stability index: 2.75 for the first, 2.54 for the second.

Compared with FCIDSENRIFNSGVEEIKGHPFFE [G10F], FCIDSENRIHNSGVEEIKGHPFFE [G10H] is higher in protein stability index: 1.57 for the first, 2.71 for the second.

Compared with FCIDSENRIINSGVEEIKGHPFFE [G10I], FCIDSENRIKNSGVEEIKGHPFFE [G10K] is higher in protein stability index: 1.87 for the first, 2.53 for the second.

Compared with FCIDSENRILNSGVEEIKGHPFFE [G10L], FCIDSENRIMNSGVEEIKGHPFFE [G10M] is higher in protein stability index: 1.96 for the first, 2.11 for the second.

Compared with FCIDSENRINNSGVEEIKGHPFFE [G10N], FCIDSENRIPNSGVEEIKGHPFFE [G10P] is lower in protein stability index: 3.64 for the first, 2.31 for the second.

Going from FCIDSENRIQNSGVEEIKGHPFFE [G10Q] to FCIDSENRIRNSGVEEIKGHPFFE [G10R], the protein stability index falls from 3.48 to 2.98.

First: FCIDSENRISNSGVEEIKGHPFFE [G10S]
Second: FCIDSENRITNSGVEEIKGHPFFE [G10T]
The protein stability index of the first is higher: 2.39 for the first, 2.38 for the second.

Going from FCIDSENRIVNSGVEEIKGHPFFE [G10V] to FCIDSENRIWNSGVEEIKGHPFFE [G10W], the protein stability index falls from 1.54 to 1.1.

First: FCIDSENRIYNSGVEEIKGHPFFE [G10Y]
Second: FCIDSENRIGASGVEEIKGHPFFE [N11A]
The protein stability index of the first is lower: 1.79 for the first, 2.11 for the second.

First: FCIDSENRIGCSGVEEIKGHPFFE [N11C]
Second: FCIDSENRIGDSGVEEIKGHPFFE [N11D]
The protein stability index of the first is lower: 2.3 for the first, 2.73 for the second.

Compared with FCIDSENRIGESGVEEIKGHPFFE [N11E], FCIDSENRIGFSGVEEIKGHPFFE [N11F] is lower in protein stability index: 3.11 for the first, 1.88 for the second.

Compared with FCIDSENRIGGSGVEEIKGHPFFE [N11G], FCIDSENRIGHSGVEEIKGHPFFE [N11H] is higher in protein stability index: 2.35 for the first, 2.38 for the second.

Going from FCIDSENRIGKSGVEEIKGHPFFE [N11K] to FCIDSENRIGLSGVEEIKGHPFFE [N11L], the protein stability index falls from 2.03 to 1.65.

Reference: the supplement of paper PMC10567573
